The assay deals with TNFα (Examples 10 and 11). Nature of the assay: cell-based or functional assay.

Data on two substances can be found in US20260139030A1.

Bounds are passed on as bounds.

In the case of “TNFR2-Fc-Dectin2 chimeric protein (Examples 10 and 11) (Fc fusion; the values are: fold reduction in SEAP activity)”, the SEAP activity (NFκB/AP-1 reporter) in HEK-Blue Dectin2 cells, reduction against TNFα plus irrelevant protein was above 20 fold. As for “TNFR2-Fc-Clec7a chimeric protein (Examples 10 and 11) (Fc fusion; the values are: fold reduction in SEAP activity)”, the figure is 4 fold.
